Experimental data taken from PMC2897912 (Journal of immunology (Baltimore, Md. : 1950), 2010).

Target: T1, IL-17RC-FL (murine IL-17RC, full length, unspliced, C-terminal Myc tag) (mouse, UniProt Q8K4C2 22-698)
T1 sequence (looked up): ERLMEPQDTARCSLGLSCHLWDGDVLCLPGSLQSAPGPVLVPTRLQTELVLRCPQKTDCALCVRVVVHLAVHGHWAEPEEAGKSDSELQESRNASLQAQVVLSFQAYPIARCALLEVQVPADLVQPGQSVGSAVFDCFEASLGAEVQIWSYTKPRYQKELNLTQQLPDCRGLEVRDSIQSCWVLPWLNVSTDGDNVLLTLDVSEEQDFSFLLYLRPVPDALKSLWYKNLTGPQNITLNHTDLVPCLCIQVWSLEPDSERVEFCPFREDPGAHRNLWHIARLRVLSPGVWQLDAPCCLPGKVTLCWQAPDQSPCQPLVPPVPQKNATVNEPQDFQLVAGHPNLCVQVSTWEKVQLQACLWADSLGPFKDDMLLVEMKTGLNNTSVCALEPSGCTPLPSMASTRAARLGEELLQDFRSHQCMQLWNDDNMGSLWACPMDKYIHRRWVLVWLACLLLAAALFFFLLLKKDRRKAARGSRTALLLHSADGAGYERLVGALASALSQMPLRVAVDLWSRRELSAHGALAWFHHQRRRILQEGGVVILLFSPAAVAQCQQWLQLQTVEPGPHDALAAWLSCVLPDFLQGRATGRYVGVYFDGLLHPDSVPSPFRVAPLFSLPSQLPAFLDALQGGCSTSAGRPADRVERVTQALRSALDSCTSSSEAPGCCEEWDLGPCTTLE
Assay: co-IP

B1: CFP-tagged murine Act1, larger phosphorylated isoform (phospho-Act1) (natural protein, mouse, UniProt Q8N7N6 1-555, looked up)
chain: MNRSIPVEVDESEPFPSQLLKPIPEYSPEEELEPPAPNTRNMAPSSLSVLQCPPLKLANHQPVSQQVTCLRAKVLEEGEASFFRRHPELGKDISSCSSGASEPESELGALPPEHRFTLTEKRNRWLGSQLSAASPDTGHESDKSDPSLPNALADSFSGGQEMMPRPRPRPGPHRHRAAPDVPTIDTGYDSQPQDVLGIRQLERPLPLTSSCYLQDLPGPLRSRELPPQFELERYPMNAQLLPPHPSPQAPWNCQYYCPGGPYHHQVPHGHGYPPAAAYQQVLQPALPGQVLPGARARGPRPVQKVILNDSSPQDQEERPAQRDFSFPRLPRDQLYRPPSNGVEAPEESLDLPAELRPHGPQAPSLAAVPRPPSNPLARGTLRTSNLPEELRKVFITYSMDTAMEVVKFVNFLLVNGFQTAIDIFEDRIRGIDIIKWMERYLRDKTVMIIVAISPKYKQDVEGAESQLDEDEHGLHTKYIHRMMQIEFISQGSMNFRFIPVLFPNAKKEHVPTWLQNTHVYSWPKNKKNILLRLLREEEYVAPPRGPLPTLQVVPL
modifications: phosphorylated (removed by shrimp alkaline phosphatase; sites not stated)
- fold induction of co-precipitated phospho-Act1 over the 0 time point: ~6 fold
